Results reported in publication PMC3584034.

Legend:
[1] = target: T1, EpCAM (human (breast and colon cancer cell lines)) (UniProt P16422); experiment: cell binding (method not given); conditions: 2'-fluoropyrimidine (Methods: 2'-fluoropyrimidine or 2'-O-methyl-pyrimidine bases); 3' inverted dT; FFPE staining: PBS, 5 mM MgCl2, 0.1 mg/mL tRNA, 1 mg/mL BSA, 10% dextran sulphate, 500 ug/mL heparin, 100 nM aptamer, 15 min, 37 C; flow cytometry: 100 nM …
T1 sequence: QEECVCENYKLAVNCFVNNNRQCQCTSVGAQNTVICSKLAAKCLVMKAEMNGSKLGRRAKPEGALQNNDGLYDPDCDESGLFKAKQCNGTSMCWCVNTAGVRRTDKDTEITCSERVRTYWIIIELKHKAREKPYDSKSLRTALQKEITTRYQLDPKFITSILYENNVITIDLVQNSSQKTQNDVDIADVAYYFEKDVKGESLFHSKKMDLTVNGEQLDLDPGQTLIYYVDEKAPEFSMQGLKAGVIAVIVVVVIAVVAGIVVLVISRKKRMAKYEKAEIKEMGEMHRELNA

[2] = target: T1, EpCAM (human (breast and colon cancer cell lines)); experiment: cell binding (cited); conditions: 2'-fluoropyrimidine (Methods: 2'-fluoropyrimidine or 2'-O-methyl-pyrimidine bases); 3' inverted dT; FFPE staining: PBS, 5 mM MgCl2, 0.1 mg/mL tRNA, 1 mg/mL BSA, 10% dextran sulphate, 500 ug/mL heparin, 100 nM aptamer, 15 min, 37 C; flow cytometry: 100 nM …; cited from earlier work

| Sequence | Kd [1] | Kd [2] |
| --- | --- | --- |
| ACGUAUCCCUUUUCGCGUA [Ep23] | 0.037 µM |  |
| GCGACUGGUUACCCGGUCG [DT3] |  | 0.158 µM |
